Where two headings read alike, the source gives them in different places. Values belong to the binder of their own block, whether it stands above or below them. Where no end group is shown, it is not given here.
Key:
Human TROP2 Full length [1] = target: T1, Human TROP2 Full length (human, UniProt P09758 31-323); assay: cell-based or functional assay
T1 sequence: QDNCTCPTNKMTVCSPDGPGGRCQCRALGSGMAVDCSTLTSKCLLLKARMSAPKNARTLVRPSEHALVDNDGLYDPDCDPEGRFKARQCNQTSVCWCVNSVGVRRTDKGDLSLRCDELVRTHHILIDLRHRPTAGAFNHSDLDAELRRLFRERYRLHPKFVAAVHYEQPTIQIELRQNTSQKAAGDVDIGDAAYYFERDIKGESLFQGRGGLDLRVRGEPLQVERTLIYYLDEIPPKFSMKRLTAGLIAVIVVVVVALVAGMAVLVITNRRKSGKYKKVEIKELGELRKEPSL

Cyno TROP2 Full length [2] = target: T2, Cyno TROP2 Full length (cynomolgus monkey, UniProt P09758 31-323 (human entry)); assay: cell-based or functional assay
T2 chain: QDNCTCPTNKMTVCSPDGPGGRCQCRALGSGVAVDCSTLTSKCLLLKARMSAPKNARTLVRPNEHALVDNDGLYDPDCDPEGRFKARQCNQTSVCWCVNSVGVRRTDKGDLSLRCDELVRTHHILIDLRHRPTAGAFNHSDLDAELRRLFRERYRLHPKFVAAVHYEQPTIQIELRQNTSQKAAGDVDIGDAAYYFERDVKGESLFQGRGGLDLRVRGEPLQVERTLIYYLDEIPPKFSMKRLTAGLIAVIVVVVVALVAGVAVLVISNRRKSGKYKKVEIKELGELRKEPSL

[3] = target: T3, Human TROP2 ECD (31-274 AA), biotinylated (human, UniProt P09758 31-274, biotinylated (site not stated)); assay: ELISA on immobilized TROP2
T3 construct: also called tumor-associated calcium signal transducer 2; Human TROP2-biotin
T3 sequence: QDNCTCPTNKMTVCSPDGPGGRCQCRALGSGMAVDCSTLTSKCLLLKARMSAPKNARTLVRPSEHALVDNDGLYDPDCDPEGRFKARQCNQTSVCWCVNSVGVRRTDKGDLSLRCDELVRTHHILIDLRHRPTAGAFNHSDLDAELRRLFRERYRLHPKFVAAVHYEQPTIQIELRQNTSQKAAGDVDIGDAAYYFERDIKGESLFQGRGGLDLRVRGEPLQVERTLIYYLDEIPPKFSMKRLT

[4] = target: T3, Human TROP2 ECD (31-274 AA), …; assay: ELISA on immobilized TROP2; remark: listed apart in the source
[5] = target: T3, Human TROP2 ECD (31-274 AA), …; assay: ELISA on immobilized TROP2; remark: listed apart in the source
[6] = target: T3, Human TROP2 ECD (31-274 AA), …; assay: ELISA on immobilized TROP2; remark: listed apart in the source
Human TROP2 Full length [7] = target: T1, Human TROP2 Full length; assay: cell-based or functional assay; remark: listed apart in the source
Cyno TROP2 Full length [8] = target: T2, Cyno TROP2 Full length; assay: cell-based or functional assay
Peptide-70 = target: T4, Peptide-70 (cysteine pairing not given here; also: biotinylated, site not given here); assay: ELISA, TCE on captured biotin-peptide
T4 construct: mask peptide for the CD3 scFv
T4 peptide: YLCGPDGDETLACY

Peptide-69 = target: T5, Peptide-69 (cysteine pairing not given here; also: biotinylated, site not given here); assay: ELISA, TCE on captured biotin-peptide
T5 construct: mask peptide for the CD3 scFv
T5 peptide: SECLVDLQSDPCYW

Peptide-68 = target: T6, Peptide-68 (cysteine pairing not given here; also: biotinylated, site not given here); assay: ELISA, TCE on captured biotin-peptide
T6 construct: mask peptide for the CD3 scFv
T6 peptide: DWCWYSPDNDGLCD

Peptide-71 = target: T7, Peptide-71 (cysteine pairing not given here; also: biotinylated, site not given here); assay: ELISA, TCE on captured biotin-peptide
T7 construct: mask peptide for the CD3 scFv
T7 peptide: VDCGPDGDESILCY

B2: PC-13 (bispecific antibody)
light: not shown
heavy: GGVDFCGLYHWPICYQGGGGSGGLSGRSDAGSPLGLAGSGGSQVQLQQSGSELKKPGASVKVSCKASGYTFTNYGMNWVKQAPGQGLKWMGWINTYTGEPTYTDDFKGRFAFSLDTSVSTAYLQISSLKADDTAVYFCAAGGFGSSYWYFDVWGQGSLVTVSSASTKGPSVFPLAPSSKSTSGGTAALGCLVKDYFPEPVTVSWNSGALTSGVHTFPAVLQSSGLYSLSSVVTVPSSSLGTQTYICNVNHKPSNTKVDKKVEPKSC
notes: anti-TROP2 R98A
EC50 [3]: 419 nM
EC50 [4]: > 1000 nM

B3: PC-17 (bispecific antibody)
light: not shown
heavy: GGIDFCAIYQWPVCRSGGGGSGGLSGRSDAGSPLGLAGSGGSQVQLQQSGSELKKPGASVKVSCKASGYTFTNYGMNWVKQAPGQGLKWMGWINTYTGEPTYTDDFKGRFAFSLDTSVSTAYLQISSLKADDTAVYFCARGGFGSSYWYFAVWGQGSLVTVSSASTKGPSVFPLAPSSKSTSGGTAALGCLVKDYFPEPVTVSWNSGALTSGVHTFPAVLQSSGLYSLSSVVTVPSSSLGTQTYICNVNHKPSNTKVDKKVEPKSC
notes: anti-TROP2 D109A
EC50 [5]: 926 nM

B4: PC-27 (bispecific antibody)
light: not shown
heavy: GGVDFCAIYSWPICKIGGGGSGGLSGRSDAGSPLGLAGSGGSQVQLQQSGSELKKPGASVKVSCKASGYTFTNYGMNWVKQAPGQGLKWMGWINTYTGEPTYTDDFKGRFAFSLDTSVSTAYLQISSLKADDTAVYFCARGGFGSSYWYFAVWGQGSLVTVSSASTKGPSVFPLAPSSKSTSGGTAALGCLVKDYFPEPVTVSWNSGALTSGVHTFPAVLQSSGLYSLSSVVTVPSSSLGTQTYICNVNHKPSNTKVDKKVEPKSC
notes: anti-TROP2 D109A
EC50 [6]: 214 nM

B5: PC-23 (bispecific antibody)
light: not shown
heavy: GGVDFCGLYHWPICYQVGGGSGGLSGRSDAGSPLGLAGSGGSQVQLQQSGSELKKPGASVKVSCKASGYTFTNYGMNWVKQAPGQGLKWMGWINTYTGEPTYTDDFKGRFAFSLDTSVSTAYLQISSLKADDTAVYFCAAGGFGSSYWYFDVWGQGSLVTVSSASTKGPSVFPLAPSSKSTSGGTAALGCLVKDYFPEPVTVSWNSGALTSGVHTFPAVLQSSGLYSLSSVVTVPSSSLGTQTYICNVNHKPSNTKVDKKVEPKSC
notes: anti-TROP2 R98A
EC50 [4]: > 1000 nM

B6: PC-21 (bispecific antibody)
light: not shown
heavy: GGVDFCALYHWPICYQGGGGSGGLSGRSDAGSPLGLAGSGGSQVQLQQSGSELKKPGASVKVSCKASGYTFTNYGMNWVKQAPGQGLKWMGWINTYTGEPTYTDDFKGRFAFSLDTSVSTAYLQISSLKADDTAVYFCARGGFGSSYWYFAVWGQGSLVTVSSASTKGPSVFPLAPSSKSTSGGTAALGCLVKDYFPEPVTVSWNSGALTSGVHTFPAVLQSSGLYSLSSVVTVPSSSLGTQTYICNVNHKPSNTKVDKKVEPKSC
notes: anti-TROP2 D109A
EC50 [6]: 168 nM

B7: PC-19 (bispecific antibody)
light: not shown
heavy: GGVDFCALYHWPICYQGGGGSGGLSGRSDAGSPLGLAGSGGSQVQLQQSGSELKKPGASVKVSCKASGYTFTNYGMNWVKQAPGQGLKWMGWINTYTGEPTYTDDFKGRFAFSLDTSVSTAYLQISSLKADDTAVYFCARGGFGSSYWYADVWGQGSLVTVSSASTKGPSVFPLAPSSKSTSGGTAALGCLVKDYFPEPVTVSWNSGALTSGVHTFPAVLQSSGLYSLSSVVTVPSSSLGTQTYICNVNHKPSNTKVDKKVEPKSC
notes: anti-TROP2 F108A
EC50 [4]: > 1000 nM

Continued, in another order:

CyTROP2 HEK293 EC50 (pM) (Cyno TROP2 Full length [2]): 35900 pM
B1: PC-32 (bispecific antibody)
light: GGVDFCGLYHWPICYQGGGGSGGLSGRSDAGSPLGLAGSGGSDIQLTQSPSSLSASVGDRVSITCKASQDVSIAVAWYQQKPGKAPKLLIYSASYRYTGVPDRFSGSGSGTDFTLTISSLQPEDFAVYYCQQHYITPLTFGAGTKVEIKRTVAAPSVFIFPPSDEQLKSGTASVVCLLNNFYPREAKVQWKVDNALQSGNSQESVTEQDSKDSTYSLSSTLTLSKADYEKHKVYACEVTHQGLSSPVTKSFNRGEC
heavy: not shown
H292 Cytotoxicity EC50 (pM) (Human TROP2 Full length [1]): 28100 pM

CyTROP2 HEK293 EC50 (pM) (Cyno TROP2 Full length [8]): 0.11 pM
B8: TCE-7 (bispecific antibody)
light: DIQLTQSPSSLSASVGDRVSITCKASQDVSIAVAWYQQKPGKAPKLLIYSASYRYTGVPDRFSGSGSGTDFTLTISSLQPEDFAVYYCQQHYITPLTFGAGTKVEIKRTVAAPSVFIFPPSDEQLKSGTASVVCLLNNFYPREAKVQWKVDNALQSGNSQESVTEQDSKDSTYSLSSTLTLSKADYEKHKVYACEVTHQGLSSPVTKSFNRGEC
heavy: not shown
HCT116 Cytotoxicity EC50 (pM) (Human TROP2 Full length [7]): 113 pM

EC50 (Peptide-70): 0.29 nM
EC50 (Peptide-69): 0.31 nM
EC50 (Peptide-68): 0.41 nM
EC50 (Peptide-71): 0.32 nM
B9: TCE-34 (anti-CD3 scFv P41S, A49G, N87S, L150F, T151S, G163R, P175A, K181T, T200V, A202D, L208I, G211N, L217I, S218T, V220A, P222A, E223D, A226S, E227D; … (bispecific antibody)
light: DIQLTQSPSSLSASVGDRVSITCKASQDVSIAVAWYQQKPGKAPKLLIYSASYRYTGVPDRFSGSGSGTDFTLTISSLQPEDFAVYYCQQHYITPLTFGAGTKVEIKRTVAAPSVFIFPPSDEQLKSGTASVVCLLNNFYPREAKVQWKVDNALQSGNSQESVTEQDSKDSTYSLSSTLTLSKADYEKHKVYACEVTHQGLSSPVTKSFNRGEC
heavy: EVQLVESGGGLVQPGGSLKLSCAASGFTFNKYAMNWVRQASGKGLEWVGRIRSKYNNYATYYADSVKDRFTISRDDSKNTAYLQMNSLKTEDTAVYYCVRHGNFGNSYISYWAYWGQGTLVTVSSGGGGSGGGGSGGGGSQTVVTQEPSFSVSPGGTVTLTCRSSTGAVTSGNYANWVQQTPGQAPRGLIGGTKFLAPGVPDRFSGSILGNKAALTITGAQADDESDYYCVLWYSNRWVFGGGTKLTVLGGGGSQVQLQQSGSELKKPGASVKVSCKASGYTFTNYGMNWVKQAPGQGLKWMGWINTYTGEPTYTDDFKGRFAFSLDTSVSTAYLQISSLKADDTAVYFCARGGFGSSYWYFDVWGQGSLVTVSSASTKGPSVFPLAPSSKSTSGGTAALGCLVKDYFPEPVTVSWNSGALTSGVHTFPAVLQSSGLYSLSSVVTVPSSSLGTQTYICNVNHKPSNTKVDKKVEPKSC
notes: scFv on the Fab heavy chain

CyTROP2 HEK293 EC50 (pM) (Cyno TROP2 Full length [8]): 0.8 pM
B10: TCE-48 (bispecific antibody)
light: DIQLTQSPSSLSASVGDRVSITCKASQDVSIAVAWYQQKPGKAPKLLIYSASYRYTGVPDRFSGSGSGTDFTLTISSLQPEDFAVYYCQQHYITPLTFGAGTKVEIKRTVAAPSVFIFPPSDEQLKSGTASVVCLLNNFYPREAKVQWKVDNALQSGNSQESVTEQDSKDSTYSLSSTLTLSKADYEKHKVYACEVTHQGLSSPVTKSFNRGEC
heavy: not shown
H292 Cytotoxicity EC50 (pM) (Human TROP2 Full length [7]): 7.2 pM

CyTROP2 HEK293 EC50 (pM) (Cyno TROP2 Full length [8]): 3.6 pM
B11: TCE-38 (bispecific antibody)
light: DIQLTQSPSSLSASVGDRVSITCKASQDVSIAVAWYQQKPGKAPKLLIYSASYRYTGVPDRFSGSGSGTDFTLTISSLQPEDFAVYYCQQHYITPLTFGAGTKVEIKRTVAAPSVFIFPPSDEQLKSGTASVVCLLNNFYPREAKVQWKVDNALQSGNSQESVTEQDSKDSTYSLSSTLTLSKADYEKHKVYACEVTHQGLSSPVTKSFNRGEC
heavy: not shown
HCT116 Cytotoxicity EC50 (pM) (Human TROP2 Full length [7]): > 3000 pM

EC50 [3]: 7.29 nM
EC50 [4]: 2.5 nM
B12: TCE-4 (bispecific antibody)
light: not shown
heavy: QVQLQQSGSELKKPGASVKVSCKASGYTFTNYGMNWVKQAPGQGLKWMGWINTYTGEPTYTDDFKGRFAFSLDTSVSTAYLQISSLKADDTAVYFCARGGFGSSYWYADVWGQGSLVTVSSASTKGPSVFPLAPSSKSTSGGTAALGCLVKDYFPEPVTVSWNSGALTSGVHTFPAVLQSSGLYSLSSVVTVPSSSLGTQTYICNVNHKPSNTKVDKKVEPKSC

Reference: patent publication US20230357429A1 (JANUX THERAPEUTICS, published 2023)
